Assay results published in the supplement of paper PMC9112550, “Optimization of the antimicrobial peptide Bac7 by deep mutational scanning” (BMC Biology, 2022).

system: Escherichia coli TOP10; experiment: shrunken log2 fold change of peptide-encoding DNA abundance (4.5 h post-induction vs induction); higher = less antimicrobial activity (less host growth inhibition); settings: time post-induction: 4.5 h; library: site-saturation at positions 5, 18, 19, 20
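Note: peptides expressed intracellularly from a pBAD plasmid library in pooled LB shake-flask culture, induced with 0.3% L-arabinose, DNA abundance read by NGS, three biological replicates, DESeq2 with apeglm shrinkage.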

| Sequence | shrunken log2 fold change |
| --- | --- |
| RRIRTRPPRLPRPRPRPNMYPRP | -0.637 |
| RRIRGRPPRLPRPRPRPLGYPRP | 0.885 |
| RRIRSRPPRLPRPRPRPIINPRP | -0.565 |
| RRIRMRPPRLPRPRPRPWEAPRP | -0.033 |
| RRIRQRPPRLPRPRPRPEWEPRP | 0.00902 |
| RRIRARPPRLPRPRPRPWFTPRP | -0.316 |
| RRIRARPPRLPRPRPRPHTRPRP | 0.0581 |
| RRIRCRPPRLPRPRPRPQRTPRP | 0.288 |
| RRIRKRPPRLPRPRPRPMYHPRP | -0.0356 |
| RRIRRRPPRLPRPRPRPQIIPRP | -0.0755 |
| RRIRWRPPRLPRPRPRPAPYPRP | -0.0336 |
| RRIRQRPPRLPRPRPRPFLTPRP | -0.156 |
| RRIRERPPRLPRPRPRPSQEPRP | -0.0844 |
| RRIRGRPPRLPRPRPRPKDAPRP | 0.432 |
| RRIRRRPPRLPRPRPRPNIQPRP | 0.0304 |
| RRIRARPPRLPRPRPRPPPGPRP | 1.16 |
| RRIRFRPPRLPRPRPRPVFDPRP | -0.258 |
| RRIRMRPPRLPRPRPRPEVRPRP | 0.438 |
| RRIRVRPPRLPRPRPRPDLCPRP | 0.0475 |
| RRIRWRPPRLPRPRPRPELQPRP | 0.326 |
| RRIRCRPPRLPRPRPRPRMVPRP | 0.205 |
| RRIRVRPPRLPRPRPRPTHKPRP | 0.333 |
| RRIRHRPPRLPRPRPRPSFVPRP | -0.38 |
| RRIRCRPPRLPRPRPRPEDHPRP | -0.0393 |
| RRIRDRPPRLPRPRPRPKMPPRP | -0.0144 |

| Sequence | shrunken log2 fold change |
| --- | --- |
| RRIRSRPPRLPRPRPRPWSYPRP | 0.0308 |
| RRIRIRPPRLPRPRPRPSMAPRP | -0.531 |
| RRIRGRPPRLPRPRPRPWHCPRP | -0.0173 |
| RRIRKRPPRLPRPRPRPEDHPRP | 0.247 |
| RRIRCRPPRLPRPRPRPKAMPRP | 0.234 |
| RRIRCRPPRLPRPRPRPSFWPRP | -0.0552 |
| RRIRKRPPRLPRPRPRPGMRPRP | 0.926 |
| RRIRLRPPRLPRPRPRPKTFPRP | -0.201 |
| RRIRSRPPRLPRPRPRPVFTPRP | 0.00672 |
| RRIRKRPPRLPRPRPRPFFSPRP | -0.0214 |
| RRIRMRPPRLPRPRPRPTLDPRP | 1.35 |
| RRIRHRPPRLPRPRPRPRTRPRP | 0.476 |
| RRIRTRPPRLPRPRPRPGGLPRP | -0.0407 |
| RRIRIRPPRLPRPRPRPQLQPRP | -0.0769 |
| RRIRFRPPRLPRPRPRPAQEPRP | 0.351 |
| RRIRWRPPRLPRPRPRPKKLPRP | -0.0343 |
| RRIRNRPPRLPRPRPRPGMGPRP | 0.307 |
| RRIRWRPPRLPRPRPRPAIQPRP | 0.0853 |
| RRIRSRPPRLPRPRPRPGNLPRP | -0.0533 |
| RRIRRRPPRLPRPRPRPVVAPRP | 0.43 |
| RRIRKRPPRLPRPRPRPVCGPRP | 0.62 |
| RRIRSRPPRLPRPRPRPADIPRP | 0.0495 |
| RRIRTRPPRLPRPRPRPFNVPRP | -0.029 |
| RRIRSRPPRLPRPRPRPIQKPRP | 0.0496 |
| RRIRRRPPRLPRPRPRPQYNPRP | -0.224 |

| Sequence | shrunken log2 fold change |
| --- | --- |
| RRIRTRPPRLPRPRPRPATNPRP | -0.0241 |
| RRIRKRPPRLPRPRPRPKICPRP | 0.0599 |
| RRIRDRPPRLPRPRPRPDEVPRP | -0.01 |
| RRIRSRPPRLPRPRPRPLGWPRP | 0.76 |
| RRIRCRPPRLPRPRPRPSLLPRP | -0.386 |
| RRIRFRPPRLPRPRPRPKIEPRP | -0.202 |
| RRIRMRPPRLPRPRPRPLAYPRP | -0.093 |
| RRIRGRPPRLPRPRPRPYSAPRP | -0.29 |
| RRIRVRPPRLPRPRPRPLPSPRP | 0.244 |
| RRIRWRPPRLPRPRPRPFFTPRP | -0.0367 |
| RRIRKRPPRLPRPRPRPIWMPRP | -0.0467 |
| RRIRHRPPRLPRPRPRPINLPRP | -0.0477 |
| RRIRLRPPRLPRPRPRPSCQPRP | -0.256 |
| RRIRYRPPRLPRPRPRPRVEPRP | -0.0337 |
| RRIRSRPPRLPRPRPRPPVSPRP | 0.308 |
| RRIRDRPPRLPRPRPRPLTKPRP | 0.0084 |
| RRIRSRPPRLPRPRPRPMCRPRP | -0.147 |
| RRIRWRPPRLPRPRPRPDFVPRP | 0.0377 |
| RRIRLRPPRLPRPRPRPGHKPRP | -0.275 |
| RRIRWRPPRLPRPRPRPSLRPRP | 0.0372 |
| RRIRIRPPRLPRPRPRPTGPPRP | -0.0249 |
| RRIRHRPPRLPRPRPRPHMMPRP | -0.321 |
| RRIRSRPPRLPRPRPRPKEDPRP | 1.6 |
| RRIRMRPPRLPRPRPRPYHHPRP | -0.702 |
| RRIRKRPPRLPRPRPRPDRWPRP | 0.683 |

| Sequence | shrunken log2 fold change |
| --- | --- |
| RRIRQRPPRLPRPRPRPINFPRP | 0.0669 |
| RRIRWRPPRLPRPRPRPGHQPRP | -0.0269 |
| RRIRSRPPRLPRPRPRPSRIPRP | -0.106 |
| RRIRHRPPRLPRPRPRPAGRPRP | 0.29 |
| RRIRDRPPRLPRPRPRPLQDPRP | 0.115 |
| RRIRFRPPRLPRPRPRPVYNPRP | -1.27 |
| RRIRCRPPRLPRPRPRPFDIPRP | -1.4 |
| RRIRHRPPRLPRPRPRPIERPRP | 0.00211 |
| RRIRCRPPRLPRPRPRPAFCPRP | 0.172 |
| RRIRRRPPRLPRPRPRPPINPRP | 0.0262 |
| RRIRVRPPRLPRPRPRPTTRPRP | 0.293 |
| RRIRRRPPRLPRPRPRPQMTPRP | 0.238 |
| RRIRFRPPRLPRPRPRPGGGPRP | 0.727 |
| RRIRRRPPRLPRPRPRPCCEPRP | 0.122 |
| RRIRCRPPRLPRPRPRPYYKPRP | -0.992 |
| RRIRRRPPRLPRPRPRPTYAPRP | 0.218 |
| RRIRLRPPRLPRPRPRPAQPPRP | 0.0855 |
| RRIRRRPPRLPRPRPRPTVRPRP | -0.00514 |
| RRIRHRPPRLPRPRPRPFFPPRP | -0.285 |
| RRIRGRPPRLPRPRPRPTWEPRP | 0.031 |
| RRIRCRPPRLPRPRPRPSRMPRP | -0.144 |
| RRIRARPPRLPRPRPRPEMCPRP | 1.17 |
| RRIRTRPPRLPRPRPRPYYFPRP | -0.783 |
| RRIRPRPPRLPRPRPRPHNPPRP | -0.0801 |
| RRIRYRPPRLPRPRPRPACEPRP | -0.0778 |

| Sequence | shrunken log2 fold change |
| --- | --- |
| RRIRVRPPRLPRPRPRPGIKPRP | 0.174 |
| RRIRLRPPRLPRPRPRPQNHPRP | -0.683 |
| RRIRARPPRLPRPRPRPCPHPRP | -0.329 |
| RRIRFRPPRLPRPRPRPYSAPRP | -1.11 |
| RRIRRRPPRLPRPRPRPDWQPRP | 0.399 |
| RRIRMRPPRLPRPRPRPLVNPRP | 0.0639 |
| RRIRLRPPRLPRPRPRPQWKPRP | 0.0162 |
| RRIRCRPPRLPRPRPRPLENPRP | -0.102 |
| RRIRERPPRLPRPRPRPMAQPRP | 0.00812 |
| RRIRDRPPRLPRPRPRPTIRPRP | 0.124 |
| RRIRPRPPRLPRPRPRPNFYPRP | 0.356 |
| RRIRNRPPRLPRPRPRPPRLPRP | 0.514 |
| RRIRWRPPRLPRPRPRPAMNPRP | -0.326 |
| RRIRKRPPRLPRPRPRPYDIPRP | -0.119 |
| RRIRERPPRLPRPRPRPYGAPRP | -0.569 |
| RRIRLRPPRLPRPRPRPHYSPRP | -0.246 |
| RRIRTRPPRLPRPRPRPWRKPRP | -0.262 |
| RRIRWRPPRLPRPRPRPTWRPRP | 0.609 |
| RRIRGRPPRLPRPRPRPFQSPRP | -0.00674 |
| RRIRIRPPRLPRPRPRPTPEPRP | 0.232 |
| RRIRCRPPRLPRPRPRPSKVPRP | -0.156 |
| RRIRHRPPRLPRPRPRPIWFPRP | 1.65 |
| RRIRYRPPRLPRPRPRPFASPRP | -0.000244 |
| RRIRARPPRLPRPRPRPCWHPRP | 0.134 |
| RRIRMRPPRLPRPRPRPAFYPRP | -0.0165 |

| Sequence | shrunken log2 fold change |
| --- | --- |
| RRIRWRPPRLPRPRPRPMPDPRP | 0.173 |
| RRIRIRPPRLPRPRPRPKAEPRP | 0.124 |
| RRIRCRPPRLPRPRPRPGSMPRP | -0.24 |
| RRIRQRPPRLPRPRPRPGLHPRP | -0.111 |
| RRIRMRPPRLPRPRPRPHFYPRP | -0.115 |
| RRIRFRPPRLPRPRPRPPPPPRP | 1.58 |
| RRIRSRPPRLPRPRPRPLCTPRP | 0.0479 |
| RRIRNRPPRLPRPRPRPPAFPRP | 0.0832 |
| RRIRCRPPRLPRPRPRPEDKPRP | -0.114 |
| RRIRQRPPRLPRPRPRPVYNPRP | -0.0538 |
| RRIRLRPPRLPRPRPRPWTKPRP | -0.139 |
| RRIRLRPPRLPRPRPRPSGWPRP | 0.0673 |
| RRIRFRPPRLPRPRPRPPMRPRP | 1.05 |
| RRIRDRPPRLPRPRPRPPLSPRP | 0.0434 |
| RRIRDRPPRLPRPRPRPPNLPRP | -0.172 |
| RRIRHRPPRLPRPRPRPDMMPRP | -0.21 |
| RRIRIRPPRLPRPRPRPHNWPRP | -0.239 |
| RRIRVRPPRLPRPRPRPWIRPRP | -0.151 |
| RRIRNRPPRLPRPRPRPGYRPRP | -0.514 |
| RRIRLRPPRLPRPRPRPAALPRP | 0.182 |
| RRIRDRPPRLPRPRPRPPFCPRP | 0.284 |
| RRIRGRPPRLPRPRPRPSQTPRP | 1.08 |
| RRIRMRPPRLPRPRPRPDIQPRP | 0.118 |
| RRIRIRPPRLPRPRPRPRRVPRP | -0.0339 |
| RRIRPRPPRLPRPRPRPAPYPRP | -0.0601 |
